Measured values: IntAct's records for PubMed 23901104

B1: Vacuolar protein sorting-associated protein 16 homolog (Homo sapiens), Q9H269 (parent)
chain: MDCYTANWNPLGDSAFYRKYELYSMDWDLKEELRDCLVAAAPYGGPIALLRNPWRKEKAASVRPVLDIYSASGMPLASLLWKSGPVVSLGWSAEEELLCVQEDGAVLVYGLHGDFRRHFSMGNEVLQNRVLDARIFHTEFGSGVAILTGAHRFTLSANVGDLKLRRMPEVPGLQSAPSCWTVLCQDRVAHILLAVGPDLYLLDHAACSAVTPPGLAPGVSSFLQMAVSFTYRHLALFTDTGYIWMGTASLKEKLCEFNCNIRAPPKQMVWCSRPRSKERAVVVAWERRLMVVGDAPESIQFVLDEDSYLVPELDGVRIFSRSTHEFLHEVPAASEEIFKIASMAPGALLLEAQKEYEKESQKADEYLREIQELGQLTQAVQQCIEAAGHEHQPDMQKSLLRAASFGKCFLDRFPPDSFVHMCQDLRVLNAVRDYHIGIPLTYSQYKQLTIQVLLDRLVLRRLYPLAIQICEYLRLPEVQGVSRILAHWACYKVQQKDVSDEDVARAINQKLGDTPGVSYSDIAARAYGCGRTELAIKLLEYEPRSGEQVPLLLKMKRSKLALSKAIESGDTDLVFTVLLHLKNELNRGDFFMTLRNQPMALSLYRQFCKHQELETLKDLYNQDDNHQELGSFHIRASYAAEERIEGRVAALQTAADAFYKAKNEFAAKATEDQMRLLRLQRRLEDELGGQFLDLSLHDTVTTLILGGHNKRAEQLARDFRIPDKRLWWLKLTALADLEDWEELEKFSKSKKSPIGYLPFVEICMKQHNKYEAKKYASRVGPEQKVKALLLVGDVAQAADVAIEHRNEAELSLVLSHCTGATDGATADKIQRARAQAQKK
partner: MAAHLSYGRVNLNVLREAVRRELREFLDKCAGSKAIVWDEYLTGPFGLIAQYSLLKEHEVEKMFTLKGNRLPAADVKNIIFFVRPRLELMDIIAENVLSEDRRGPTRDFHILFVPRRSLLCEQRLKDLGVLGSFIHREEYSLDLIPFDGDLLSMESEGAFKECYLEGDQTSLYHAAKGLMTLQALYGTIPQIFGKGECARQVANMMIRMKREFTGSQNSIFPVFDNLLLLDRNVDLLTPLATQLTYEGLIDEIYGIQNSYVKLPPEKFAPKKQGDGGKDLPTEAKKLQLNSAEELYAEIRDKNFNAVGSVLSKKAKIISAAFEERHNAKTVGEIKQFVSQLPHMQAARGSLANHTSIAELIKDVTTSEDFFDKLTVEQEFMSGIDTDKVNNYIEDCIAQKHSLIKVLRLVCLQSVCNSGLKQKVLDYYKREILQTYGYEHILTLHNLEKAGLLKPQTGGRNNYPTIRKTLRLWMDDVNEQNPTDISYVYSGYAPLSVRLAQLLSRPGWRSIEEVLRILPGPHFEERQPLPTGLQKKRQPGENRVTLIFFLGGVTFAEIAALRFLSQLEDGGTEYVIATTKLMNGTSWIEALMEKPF
B2: Vacuolar protein sorting-associated protein 33A (Homo sapiens), Q96AX1 (parent)
chain: B1 partner
partner: B1 chain

Variants of: B1
Conditions: with vp33a_human VPS33A

| effect of a mutation on the interaction | Variant |
| --- | --- |
| disrupting interaction | R725E |
| decreasing interaction | A669D |

Variants of: B2
Conditions: with vps16_human VPS16, Q9H269

| effect of a mutation on the interaction | Variant |
| --- | --- |
| disrupting interaction | MAAHLSYGRVNLNVLREAVRRELREFLDKCAGSKAIVWDEYLTGPFGLIAQYSLLKEHEVEKMFTLKGNRLPAADVKNIIFFVRPRLELMDIIAENVLSEDRRGPTRDFHILFVPRRSLLCEQRLKDLGVLGSFIHREEYSLDLIPFDGDLLSMESEGAFKECYLEGDQTSLYHAAKGLMTLQALYGTIPQIFGKGECARQVANMMIRMKREFTGSQNSIFPVFDNLLLLDRNVDLLTPLATQLTYEGLIDEIYGIQNSYVKLPPEKFAPKKQGDGGKDLPTEAKKLQLNSAEELYAEIRDKNFNAVGSVLSKKAKIISAAFEERHNAKTVGEIKQFVSQLPHMQAARGSLANHTSIAELIKDVTTSEDFFDKLTVEQEFMSGIDTDKVNNYIEDCIAQKHSLIKVLRLVCLQSVCNSGLKQKVLDYYDREILQTYGYEHILTLHNLEKAGLLKPQTGGRNNYPTIRKTLRLWMDDVNEQNPTDISYVYSGYAPLSVRLAQLLSRPGWRSIEEVLRILPGPHFEERQPLPTGLQKKRQPGENRVTLIFFLGGVTFAEIAALRFLSQLEDGGTEYVIATTKLMNGTSWIEALMEKPF [K429D] |
| disrupting interaction strength | MAAHLSYGRVNLNVLREAVRRELREFLDKCAGSKAIVWDEYLTGPFGLIAQYSLLKEHEVEKMFTLKGNRLPAADVKNIIFFVRPRLELMDIIAENVLSEDRRGPTRDFHILFVPRRSLLCEQRLKDLGVLGSFIHREEYSLDLIPFDGDLLSMESEGAFKECYLEGDQTSLYHAAKGLMTLQALYGTIPQIFGKGECARQVANMMIRMKREFTGSQNSIFPVFDNLLLLDRNVDLLTPLATQLTYEGLIDEIYGIQNSYVKLPPEKFAPKKQGDGGKDLPTEAKKLQLNSAEELYAEIRDKNFNAVGSVLSKKAKIISAAFEERHNAKTVGEIKQFVSQLPHMQAARGSLANHTSIAELIKDVTTSEDFFDKLTVEQEFMSGIDTDKVNNYIEDCIAQKHSLIKVLRLVCLQSVCNSGLKQKVLDYYKREILQTYGPEHILTLHNLEKAGLLKPQTGGRNNYPTIRKTLRLWMDDVNEQNPTDISYVYSGYAPLSVRLAQLLSRPGWRSIEEVLRILPGPHFEERQPLPTGLQKKRQPGENRVTLIFFLGGVTFAEIAALRFLSQLEDGGTEYVIATTKLMNGTSWIEALMEKPF [Y438P] |
| disrupting interaction | MAAHLSYGRVNLNVLREAVRRELREFLDKCAGSKAIVWDEYLTGPFGLIAQYSLLKEHEVEKMFTLKGNRLPAADVKNIIFFVRPRLELMDIIAENVLSEDRRGPTRDFHILFVPRRSLLCEQRLKDLGVLGSFIHREEYSLDLIPFDGDLLSMESEGAFKECYLEGDQTSLYHAAKGLMTLQALYGTIPQIFGKGECARQVANMMIRMKREFTGSQNSIFPVFDNLLLLDRNVDLLTPLATQLTYEGLIDEIYGIQNSYVKLPPEKFAPKKQGDGGKDLPTEAKKLQLNSAEELYAEIRDKNFNAVGSVLSKKAKIISAAFEERHNAKTVGEIKQFVSQLPHMQAARGSLANHTSIAELIKDVTTSEDFFDKLTVEQEFMSGIDTDKVNNYIEDCIAQKHSLIKVLRLVCLQSVCNSGLKQKVLDYYKREILQTYGDEHILTLHNLEKAGLLKPQTGGRNNYPTIRKTLRLWMDDVNEQNPTDISYVYSGYAPLSVRLAQLLSRPGWRSIEEVLRILPGPHFEERQPLPTGLQKKRQPGENRVTLIFFLGGVTFAEIAALRFLSQLEDGGTEYVIATTKLMNGTSWIEALMEKPF [Y438D] |
| disrupting interaction | MAAHLSYGRVNLNVLREAVRRELREFLDKCAGSKAIVWDEYLTGPFGLIAQYSLLKEHEVEKMFTLKGNRLPAADVKNIIFFVRPRLELMDIIAENVLSEDRRGPTRDFHILFVPRRSLLCEQRLKDLGVLGSFIHREEYSLDLIPFDGDLLSMESEGAFKECYLEGDQTSLYHAAKGLMTLQALYGTIPQIFGKGECARQVANMMIRMKREFTGSQNSIFPVFDNLLLLDRNVDLLTPLATQLTYEGLIDEIYGIQNSYVKLPPEKFAPKKQGDGGKDLPTEAKKLQLNSAEELYAEIRDKNFNAVGSVLSKKAKIISAAFEERHNAKTVGEIKQFVSQLPHMQAARGSLANHTSIAELIKDVTTSEDFFDKLTVEQEFMSGIDTDKVNNYIEDCIAQKHSLIKVLRLVCLQSVCNSGLKQKVLDYYKREILQTYGYEHKLTLHNLEKAGLLKPQTGGRNNYPTIRKTLRLWMDDVNEQNPTDISYVYSGYAPLSVRLAQLLSRPGWRSIEEVLRILPGPHFEERQPLPTGLQKKRQPGENRVTLIFFLGGVTFAEIAALRFLSQLEDGGTEYVIATTKLMNGTSWIEALMEKPF [I441K] |
